Here are results for three molecules from paper PMC4849472 (Cell Discovery, 2016).

Common to all, as to settings: both partners purified
In assay [1] the target is T1, Hsp90 (human, UniProt P07900 1-732). In words: native MS; p23 added to the client-transfer complex without immunophilin, with ATP; MS/MS (collision-induced dissociation) of the isolated 32+ charge state of (Hsp90)2(p23)2(GR)1.
Assay [2] has as its target T1, Hsp90. In words: native MS; as a8, then stoichiometric p23 added (300 μM ATP magnesium acetate, a further 15 min).
The target of assay [3] is T1, Hsp90. In words: native MS; (Hsp70)2, GR, Hop and (Hsp90)2 all at 0.5 μM with Hsp40 and excess ATP; then an equimolar ratio of FKBP52 added to the formed complex.
For assay [4], the target named is client-transfer complex (Hsp90)2(Hop)1(Hsp70)2(GR)1 (human, UniProt P07900 1-732; P31948 1-543; P0DMV8 1-641; P04150 521-777, F602S). Described as above.
The target in assay [5] is T1, Hsp90. In words: native MS; as a12 (Hsp90/Hsp70/Hop/GR/Hsp40/p23/FKBP51), then challenged with excess FKBP52.
Assay [6] deals with T1, Hsp90. In words: native MS; Hsp90_(2) 1 μM with 2 μM of both FKBP51 and FKBP52.
Assay [7] concerns the target T1, Hsp90. In words: native MS; competition: Hsp90_(2) with Hop, FKBP51 and FKBP52, all at equimolar concentration (3 μM).
In assay [8] the target is T1, Hsp90. In words: native MS; Hsp90_(2) 3 μM with FKBP51 and FKBP52 in twofold molar excess (6 μM), the highest concentrations studied.

B1: p23 (natural protein, human, UniProt Q15185 1-160, looked up)
chain: MQPASAKWYDRRDYVFIEFCVEDSKDVNVNFEKSKLTFSCLGGSDNFKHLNEIDLFHCIDPNDSKHKRTDRSILCCLRKGESGQSWPRLTKERAKLNWLSVDFNNWKDWEDDSDEDMSNFDRFSEMMNNMGGDEDVDLPEVDGADDDSQDSDDEKMPDLE
notes: p23 co-chaperone, human; source: provided by Sophie Jackson and David Agard's labs; expressed and purified as previously described [33]
As to B1, the figures for the “stoichiometry N” value in assay [1] and in assay [2] were 2 per Hsp90 dimer and 1 per Hsp90 dimer, respectively.

B2: glucocorticoid receptor ligand-binding domain (residues 521-777, F602S) (domain or fragment, human, UniProt P04150 521-777, looked up)
chain: VPATLPQLTPTLVSLLEVIEPEVLYAGYDSSVPDSTWRIMTTLNMLGGRQVIAAVKWAKAIPGFRNLHLDDQMTLLQYSWMSLMAFALGWRSYRQSSANLLCFAPDLIINEQRMTLPCMYDQCKHMLYVSSELHRLQVSYEEYLCMKTLLLLSSVPKDGLKSQELFDEIRMTYIKELGKAIVKREGNSSQNWQRFYQLTKLLDSMHEVVENLLNYCFQTFLDKTMSIEFPEMLAEIITNQIPKYSNGNIKKLLFHQK
notes: Used without ligand; also called GR; source: provided by Sophie Jackson and David Agard's labs; expressed and purified as previously described [33]
As for B2, the “stoichiometry N” value in assay [3] came out at 1 per Hsp90 dimer.

B3: FKBP52 (natural protein, human, UniProt Q02790 1-459, looked up)
chain: MTAEEMKATESGAQSAPLPMEGVDISPKQDEGVLKVIKREGTGTEMPMIGDRVFVHYTGWLLDGTKFDSSLDRKDKFSFDLGKGEVIKAWDIAIATMKVGEVCHITCKPEYAYGSAGSPPKIPPNATLVFEVELFEFKGEDLTEEEDGGIIRRIQTRGEGYAKPNEGAIVEVALEGYYKDKLFDQRELRFEIGEGENLDLPYGLERAIQRMEKGEHSIVYLKPSYAFGSVGKEKFQIPPNAELKYELHLKSFEKAKESWEMNSEEKLEQSTIVKERGTVYFKEGKYKQALLQYKKIVSWLEYESSFSNEEAQKAQALRLASHLNLAMCHLKLQAFSAAIESCNKALELDSNNEKGLFRRGEAHLAVNDFELARADFQKVLQLYPNNKAAKTQLAVCQQRIRRQLAREKKLYANMFERLAEEENKAKAEASSGDHPTDTEMKEEQKSNTAGSQSQVETEA
notes: FKBP52, human immunophilin; The cited PDB entries hold overlapping segments of FKBP52, not the construct used here; source: provided by Sophie Jackson and David Agard's labs; expressed and purified as previously described [33]
Consider B3, for which the “stoichiometry N” value in assay [4] was 1 per client-transfer complex; in assay [5], 1 per Hsp90 monomer; in assay [6], no more than 2 per Hsp90 dimer; in assay [7], 1 per Hsp90 dimer; in assay [8], no more than 2 per Hsp90 monomer.

Broadly, the stoichiometry N is a count of units in the complex or per binding partner.
